The values below come from patent US20230303695A1 (SHANGHAI XBH BIOTECHNOLOGY, published 2023).

Some results are limits rather than exact numbers.

As a reminder, the Kd is a measure of binding affinity in units of concentration. For orientation: EC50 means the concentration at which the effect is half-maximal. High values mean a less potent agent, low ones a more potent agent.

In assay [1] the target is T1, D1 domain of IGSF8 (recombinant protein) (human, UniProt Q969P0 28-149, limits assumed).
T1 construct: domain: D1 (Ig V-set domain); also called Ig V-set domain of IGSF8
T1 sequence (looked up): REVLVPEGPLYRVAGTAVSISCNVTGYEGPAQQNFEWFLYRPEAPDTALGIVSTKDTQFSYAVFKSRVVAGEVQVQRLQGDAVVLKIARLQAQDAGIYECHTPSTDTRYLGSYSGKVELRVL
Description: SPR, Biacore T100. A general note: SPR reads the build-up and loss of mass on a sensor chip optically.

The target of assay [2] is T2, full-length IGSF8 (recombinant antigen of the SPR screen; IGSF8 target antigen of the phage panning) (human, UniProt Q969P0 28-579, limits assumed).
T2 sequence (looked up): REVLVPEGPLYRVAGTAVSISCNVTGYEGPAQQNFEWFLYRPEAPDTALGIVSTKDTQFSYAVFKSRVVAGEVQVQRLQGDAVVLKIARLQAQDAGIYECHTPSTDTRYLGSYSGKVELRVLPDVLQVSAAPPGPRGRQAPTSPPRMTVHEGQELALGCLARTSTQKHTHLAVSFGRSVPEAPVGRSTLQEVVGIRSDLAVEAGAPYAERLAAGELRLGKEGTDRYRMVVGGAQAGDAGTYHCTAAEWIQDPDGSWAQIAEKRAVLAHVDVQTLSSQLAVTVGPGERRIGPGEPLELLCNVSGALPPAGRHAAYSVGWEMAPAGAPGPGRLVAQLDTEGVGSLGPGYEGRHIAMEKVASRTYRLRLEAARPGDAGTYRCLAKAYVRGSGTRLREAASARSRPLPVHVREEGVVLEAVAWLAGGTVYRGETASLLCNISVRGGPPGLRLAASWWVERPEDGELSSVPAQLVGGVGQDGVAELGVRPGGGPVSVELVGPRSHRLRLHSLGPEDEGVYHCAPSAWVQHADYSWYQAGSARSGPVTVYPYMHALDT
The assay is described as follows: SPR, Biacore T100.

The target in assay [3] is T3, human IGSF8 expressed on the cell surface (human, UniProt Q969P0 28-613).
T3 construct: whole, on cells; also called human IGSF8 on CT26 cells; IGSF8 on MC38 cells
T3 sequence (looked up): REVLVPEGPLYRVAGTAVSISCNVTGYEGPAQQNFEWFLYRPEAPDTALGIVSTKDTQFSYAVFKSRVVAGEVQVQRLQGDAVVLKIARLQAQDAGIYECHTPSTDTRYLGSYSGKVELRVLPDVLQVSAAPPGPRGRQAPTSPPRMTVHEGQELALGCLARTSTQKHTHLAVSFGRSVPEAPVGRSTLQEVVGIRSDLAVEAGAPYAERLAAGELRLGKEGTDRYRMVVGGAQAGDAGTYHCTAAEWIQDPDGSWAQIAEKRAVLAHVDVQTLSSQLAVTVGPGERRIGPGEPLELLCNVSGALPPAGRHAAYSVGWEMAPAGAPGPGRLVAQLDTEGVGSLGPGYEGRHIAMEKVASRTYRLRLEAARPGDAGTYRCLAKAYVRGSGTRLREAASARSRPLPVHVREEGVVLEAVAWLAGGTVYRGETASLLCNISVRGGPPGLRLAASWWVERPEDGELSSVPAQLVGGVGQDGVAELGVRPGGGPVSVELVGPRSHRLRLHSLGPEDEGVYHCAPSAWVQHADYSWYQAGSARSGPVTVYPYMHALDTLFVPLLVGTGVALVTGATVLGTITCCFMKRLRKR
Description: FACS on CT26 cells with forced surface expression of human IGSF8. The procedure: For antibody binding assays based on cell-expressed antigens, 100,000 cells overexpressing the antigen (either the full-length IGSF8 or the D1 domain thereof) were washed with PBS buffer containing 2% FBS, and then incubated with 100 μL of antibodies or IgG of different concentrations for 30 minutes on ice. Cells were then washed twice with wash buffer, and incubated with 100 μL of 1:100 anti-human Fc-PE antibody for 15 minutes on ice. Cells were washed twice with wash buffer and analyzed on a FACS analyzer (CytoFlex, Beckman).

For assay [4], the target named is T4, IGSF8 protein without D1 domain (human, UniProt Q969P0 150-579, limits assumed).
T4 construct: domain: D2-4; also called D24; D2-4
T4 sequence (looked up): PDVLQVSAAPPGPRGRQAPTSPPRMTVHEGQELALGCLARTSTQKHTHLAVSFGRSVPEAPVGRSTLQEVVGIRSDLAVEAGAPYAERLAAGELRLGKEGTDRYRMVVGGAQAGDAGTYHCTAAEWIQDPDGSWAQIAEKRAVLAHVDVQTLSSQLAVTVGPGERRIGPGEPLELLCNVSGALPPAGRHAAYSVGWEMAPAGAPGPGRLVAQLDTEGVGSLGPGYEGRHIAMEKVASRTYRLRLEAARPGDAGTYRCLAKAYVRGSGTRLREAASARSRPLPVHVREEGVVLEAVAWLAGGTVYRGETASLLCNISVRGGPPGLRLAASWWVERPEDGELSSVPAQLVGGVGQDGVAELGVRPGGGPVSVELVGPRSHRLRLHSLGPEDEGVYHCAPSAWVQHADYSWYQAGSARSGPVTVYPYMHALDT
Description: FACS, single antibody dose, IGSF8-D24 (D2-D4 with TM, no D1) expressed on CT26 cells. Background: A flow cytometer gives signals particle by particle.

For assay [5], the target named is T5, mouse IGSF8 expressed on CT26 cells (mouse, UniProt Q8R366 26-611).
T5 construct: whole, on cells
T5 sequence (looked up): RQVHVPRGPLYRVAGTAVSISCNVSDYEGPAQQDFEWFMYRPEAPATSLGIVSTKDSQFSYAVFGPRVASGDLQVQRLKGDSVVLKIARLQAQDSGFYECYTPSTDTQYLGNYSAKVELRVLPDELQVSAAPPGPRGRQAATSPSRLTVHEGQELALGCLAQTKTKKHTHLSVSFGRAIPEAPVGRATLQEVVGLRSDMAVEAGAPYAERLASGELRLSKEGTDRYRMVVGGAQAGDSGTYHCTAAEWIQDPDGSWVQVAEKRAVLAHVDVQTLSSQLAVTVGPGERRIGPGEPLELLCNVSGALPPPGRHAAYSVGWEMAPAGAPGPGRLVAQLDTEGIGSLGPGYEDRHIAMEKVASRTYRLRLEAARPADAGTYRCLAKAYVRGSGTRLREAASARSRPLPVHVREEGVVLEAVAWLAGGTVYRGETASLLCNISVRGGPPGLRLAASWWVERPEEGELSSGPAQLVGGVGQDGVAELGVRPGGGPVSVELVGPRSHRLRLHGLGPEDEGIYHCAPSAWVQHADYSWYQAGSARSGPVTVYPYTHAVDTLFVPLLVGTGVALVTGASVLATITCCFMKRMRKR
The assay is described as follows: FACS on CT26 cells.

Assay [6] deals with T4, IGSF8 protein without D1 domain. The assay is described as follows: FACS, hFc-tagged proteins on CT26 cells expressing the receptor, MFI normalized to Thy1.1. How it is done: (§1) KLRC1 also contains a ITIM motif in its intracellular domain, and was known to be a inhibitory receptor of NK or CD8⁺ T cells as part of a heterodimer with KLRD1 on the cell surface. […] Specifically, 100,000 CT26 cells overexpressing the antigens (KIRs or KLRs) were washed with PBS buffer containing 2% FBS, and incubated with 100 μL IGSF8 recombinant proteins or antibodies (5 μg/mL) for 30 minutes on ice. Cells were then washed twice with wash buffer, and incubated with 100 μL of 1:100 anti-human Fc-PE antibody for 15 minutes on ice. Cells were washed twice with wash buffer and analyzed on a FACS analyzer (CytoFlex, Beckman). In these experiments, the mean fluorescence intensity (MFI) of IGSF8 binding to different CT26 cells were normalized by the expression of different KLRs on CT26 cells using an anti-thy1.1 mAb via flow cytometry.

Assay [7] deals with T6, recombinant human IGSF8 extracellular domain tagged by a human Fc region (IGSF8-hFc) (human, UniProt Q969P0 28-579, biotin label in Examples 17, 18 and 28 (site not given)).
T6 construct: also called IGSF8-Fc fusion protein; IGSF8-hFc-biotin; not shown: human Fc region
T6 sequence: T2 sequence (looked up)
Description: FACS, biotin-labelled IGSF8-hFc on CT26 cells expressing the KIR, MFI normalized to Thy1.1. How it is done: For this experiment, different human KIR receptors (KIR2DL1, KIR2DL2, KIR2DL3, KIR2DL4, KIR2DL5A, KIR2DL5B, KIR3DL1, KIR3DL2, KIR3DL3) were first cloned into a proprietary lentiviral vector containing a thy1.1 tag (FIG. 17A). Then mouse CT26 cells, were transducted by these lentiviral constructs, and IGSF8 binding was tested with biotin-labelled recombinant IGSF8 hFc fusion protein. The mean fluorescence intensity (MFI) of IGSF8 binding to different CT26 cells were normalized by the expression of different KIRs on CT26 cells using an anti-thy1.1 mAb (Biolegend) via flow cytometry.
as §1

B1: Antibody C33 (1C2) (antibody, V domains shown)
VH: QVQLVESGGGVVQPGRSLRLSCAASGFTFSTYGMHWVRQAPGKGLEWVAVIWDDGSYKYYGDSVKGRFTISRDNSKNTLYLQMNSLRAEDTAVYYCARDGSGWGYAFDIWGQGTMVTVSS
VL: DIQLTQSPSSLSASVGDRVTITCQASQDISEYLNWYQHKPGKAPNPLVFDAANLETGVPPRFSATGSGTDFSLTITSLQPEDFATYYCQQYDSFPYTFGQGTRLDIK
notes: also called mAb-1C2 (C33)
In the case of B1, the Kd in assay [1] was below 50 nM; in assay [2], 33.2 nM. In assay [3], this molecule displayed an EC50 of 6.2 nM. Besides, in assay [4], the binding result was “no binding (tested: not shown on the sheet)”.

B2: Antibody C32 (B104) (antibody, IgG1, V domains shown)
VH: QVQLVQSGAEVKRPGASVKVSCKASGYTFTNDIIHWVRQAPGQRLEWMGWINAGYGNTQYSQNFQDRVSITRDTSASTAYMELISLRSEDTAVYYCARGYYRSPTWFDWWGQGTLVTVSS
VL: ETTLTQSPSSLSASVGDRVTITCRASQSISSWLAWYQQKPGKAPKLLIYKASSLESGVPSRFSGSGSGTEFTLTISSLQPDDFATYYCQQYGDYPYTFGQGTKLEIKR
notes: also called mAb-B104 (C32)
With B2, the Kd is below 50 nM in assay [1] and 25.9 nM in assay [2]. The binding result is recorded as “binds” in assay [5] and “no binding (tested: not shown on the sheet)” in assay [4]. Moreover, a half-maximal effect in assay [3] (EC50) was put at 5.42 nM.

B3: Antibody C31 (B46) (antibody, V domains shown)
VH: QVQLVESGGGVVQPGRSLRLSCAASGFTFSTYGMHWVRQAPGKGLEWVAVIWDDGSYKYYGDSVKGRFTISRDNSKNTLYLQMNSLRAEDTAVYYCAGGYSYSYMAIWGKGTTVTVSS
VL: DIVLTQSPSSLSASVGDRVTITCRASQGISTFLNWYQQKPGKAPKLLIYAASSLQSGVPSRFSGSGSGTDFTLTIGSLQPEDFASYFCQQTYSTQWTFGQGTKVEIK
notes: also called mAb-B46 (C31)
On to B3, for which the Kd in assay [1] is below 50 nM; in assay [2], 7.29 nM. Moreover, the binding result in assay [5] is “binds”; in assay [4], “no binding (tested: not shown on the sheet)”. In assay [3], this molecule showed an EC50 of 2.08 nM.

B4: Antibody C36 (1B4) (antibody, V domains shown)
VH: EVQLLESGGGLVQPGGSLRLSCAASGFTFSSYAMSWVRQAPGKGLEWVSGITGSGGSTYYADSVKGRFTISRDNSKNTLYLQMNSLRAEDTAIYYCARGGALDIWGQGTMVTVSS
VL: DIQMTQSPSSLSASVGDRVTITCRASQVIHNYLAWYKQKPGQAPKLLIYSASSLQSGVPSRFSGSGSGTDFTLTISSLQPEDFATYYCQQSYSTPLTFGGGTKVEIKR
notes: also called mAb-1B4 (C36)
Regarding B4, the Kd in assay [1] was below 50 nM; in assay [2] it was 4.57 nM. Moreover, the binding result in assay [5] was “binds”. This molecule returned an EC50 in assay [3] of 2.02 nM.

B5: KIR3DL1 expressed on CT26 cells (receptor, human, UniProt P43629 22-444, looked up)
chain: HMGGQDKPFLSAWPSAVVPRGGHVTLRCHYRHRFNNFMLYKEDRIHIPIFHGRIFQESFNMSPVTTAHAGNYTCRGSHPHSPTGWSAPSNPVVIMVTGNHRKPSLLAHPGPLVKSGERVILQCWSDIMFEHFFLHKEGISKDPSRLVGQIHDGVSKANFSIGPMMLALAGTYRCYGSVTHTPYQLSAPSDPLDIVVTGPYEKPSLSAQPGPKVQAGESVTLSCSSRSSYDMYHLSREGGAHERRLPAVRKVNRTFQADFPLGPATHGGTYRCFGSFRHSPYEWSDPSDPLLVSVTGNPSSSWPSPTEPSSKSGNPRHLHILIGTSVVIILFILLLFFLLHLWCSNKKNAAVMDQEPAGNRTANSEDSDEQDPEEVTYAQLDHCVFTQRKITRPSQRPKTPPTDTILYTELPNAKPRSKVVSCP
notes: whole, on cells; lentiviral vector containing a thy1.1 tag
B5: the binding result is reported as “no binding” in assay [6] and “binds” in assay [7].

B6: KLRC1/KLRD1 heterodimer expressed on CT26 cells (receptor)
chain 1: not shown
chain 2: MAVFKTTLWRLISGTLGIICLSLMSTLGILLKNSFTKLSIEPAFTPGPNIELQKDSDCCSCQEKWVGYRCNCYFISSEQKTWNESRHLCASQKSSLLQLQNTDELDFMSSSQQFYWIGLSYSEEHTAWLWENGSALSQYLFPSFETFNTKNCIAYNPNGNALDESCEDKNRYICKQQLI
notes: whole, on cells; cells co-transfected with both lentiviral constructs; also called KLRC1&D1 heterodimer; KLRC1/D1
For B6, the binding result in assay [6] is reported as “no binding”.
